Reference: the Human Domainome abundance scans (Beltran et al. 2025)

B1: Pyruvate dehydrogenase protein X component, mitochondrial, residues 181 to 227; numbered along this chain, O00330 (parent)
chain: RFRLSPAARNILEKHSLDASQGTATGPRGIFTKEDALKLVQLKQTGK

Variants of: B1
Test: abundance fitness (aPCA) (normalised: wild type 0, dead -1); higher = more abundant; growth selection in yeast, the domain comes from the species named
Details: Homo sapiens

Abundance fitness: each site, then its substitutions
D35: N -0.926, G -0.565, R -0.847, C -1.06, Q -0.818, L -0.76, I -0.956, A -0.637, T -0.936, E -0.439, Y -0.865, V -1, F -1.25, K -0.828, W -0.814
E34: T -0.299, I -0.615, H -0.095, Q 0.054, C -0.437, R -0.329, G -0.323, W -0.334, F -0.388, V -0.515, L -0.443, M -0.536, D -0.058, S -0.178, A -0.155, N -0.811, P -0.714
Q41: H -0.452, G -0.227, Y -0.639, M -0.181, V -0.287, I -0.648, N -0.159, R 0.214, D -0.085, W -0.395, L -0.353, P -0.2, S 0.2, C -0.855, E 0.193
L37: H -0.544, P -0.541, A -0.55, M -0.183, Y -0.383, T -0.072, R -0.377, K -0.088, V -0.165, D 0.035, W -0.293, I -0.369, G -0.233, S -0.286, C -0.388, F -0.402, Q -0.545, E 0.278
L39: P -0.348, Y -0.874, Q -0.619, T -0.505, A -0.319, W -0.731, F -0.746, D -0.121, S -0.127, E -0.28, C -0.694, G -0.222, M -0.089, H -0.271, N 0.065, R -0.484, V -0.315, K -0.545
V40: A -0.338, R -0.439, P -0.314, H -1.01, D -0.195, S -0.381, G -0.545, F -0.592, Y -0.295, K -0.099, Q -0.252, I -0.411, T -0.706, C -0.183
K43: W -0.608, L -0.575, S 0.013, F -0.305, P -0.477, E -0.395, D -0.227, H 0.299, V -0.28, G -0.141, R -0.245, C -0.267, Y -0.193, A -0.083, Q -0.057
K33: W -0.762, Y -0.401, V -0.291
Q44: A -0.008
L42: P -0.347, Y -0.058, M -0.09, R -0.094, Q 0.115, K 0.221, H -0.618, I -0.291, W -0.251, C 0.013, T -0.198, V -0.001, E 0.096, D 0.085, F -0.535, A 0.131, S -0.247, G -0.183, N -0.288
A36: R -0.723, L -0.756, E -0.317, P -0.908, V -0.823, H -0.562, T -0.669, S -0.512, K -0.563, W -1.02, I -0.947, M -0.41, D -0.262, G -0.513, C -0.339, N -0.428
K38: I -0.604, C -0.453, G -0.354, N -0.258, L -0.775, F -0.781, D -0.577, W -0.951, P -0.33, M -0.251, T -0.643, A -0.105, S 0.007, V -0.391, R 0.042, H -0.149
